Reference: patent US20240209061A1, “FUSION PROTEINS AND USES THEREOF” (Pfizer Inc., priority 2020, published 2024)

Key:
[1] = tested on: CT26 murine colorectal carcinoma tumor cells; experiment: CT26 murine colorectal carcinoma model; assay type: in vivo, mouse; conditions: for Day 10 tumor volume: Days 0 and 3; for % tumor growth inhibition: Day 10; for # IFNγ-producing spots (tumor-reactive T cells in spleen): average of n = 4 mice
Description: CT26 murine colorectal carcinoma tumor cells (1×10^6) were subcutaneously implanted in the hind flank of female Balb/c mice. When tumors reached ˜100 mm3 (Day 8), mice were randomized. PBS vehicle control or variant CD80-Fc fusion proteins were dosed intravenously at 0.1 and 1.0 mg/kg on Days 0 and 3. Tumor volume was determined by caliper measurements obtained in 2 dimensions and calculated as width^2×length/2. Error bars are depicted as ±SEM.
IFNγ ELIspot was used to measure tumor-reactive T cells in the spleen in mice treated with CD80-Fc fusion proteins at a 1 mg/kg dose.
Cytotoxic CD8^+ T cells are responsible for killing cancer cells and the measurement of CD8^+ T cells that have infiltrated tumors commonly correlates with efficacy for immune-oncology therapies. For all in vivo studies, tumors were collected ˜1 week after the first dose and dissociated by mincing, followed by incubation in an enzymatic digestion cocktail and homogenization. The resulting cell suspension was filtered and washed, and single cells were stained with antibodies to CD45, CD8, and a viability dye to detect tumor-infiltrating lymphocytes (TILs) by flow cytometry. Data were acquired on a BD LSRFortessa flow cytometer or a Cytek Aurora spectral flow cytometer. Table 31 and FIG. 18 show the amount of tumor-infiltrating CD8+ T cells expressed as a percentage of total immune cells (CD45+). Each value is the average of n=4 mice per group. Treatment with all variant CD80-Fc fusion proteins led to increase in CD8+ TILs in various tumor models.

[2] = Thermal forced aggregation (SEC); assay type: physicochemical; conditions: 24 hours, PBS
Description: To assess the aggregation propensity of variant CD80-Fc fusion proteins, 1 mg/ml of CD80-Fc fusion protein was incubated in PBS at increasing temperatures for 24 hours. The samples were analyzed by SEC on an Agilent 1100 (Agilent Technologies, Germany) HPLC system using a YMC-Pack Diol-200 (YMC, Germany) analytical size exclusion chromatography column and PBS supplemented to 400 mM NaCl as running buffer. % aggregation was calculated from the loss of intact peak area. […] ND=Not Determined.

[3] = Viscosity (Anton Paar rheometer); assay type: physicochemical; conditions: 20 mM histidine, 8.5% sucrose, pH 5.8
Description: The viscosity of CD80-Fc fusion proteins was assessed at various concentrations. Lower viscosity is desired for subcutaneous administration, and providing optimal syringeability and minimal pain to patients. Viscosity was measured using an Anton Paar rheometer and a CP-25 measuring system at 150 rpm. The sample comprised CD80-Fc fusion proteins in 20 mM histidine and 8.5% sucrose at pH 5.8.

[4] = tested on: Jurkat-IL-2-Luc reporter cells; experiment: Jurkat-IL-2-Luc and HCT116-CD64 reporter co-stimulation assay; assay type: cell-based, human; conditions: for EC50: Table 17, 20 ng/ml CDH3×CD3 bispecific, n=2
Excerpt: A T cell co-stimulation assay was designed based on T Cell Activation Bioassay (IL-2) Kit from Promega (Product #J1631). The assay consisted of a genetically engineered Jurkat T cell line that expresses luciferase reporter driven by an IL-2 promoter. Co-engagement of T cell antigen receptor (TCR/CD3) and CD28 co-stimulatory receptor induces activation of T cells and downstream intracellular signaling pathways that in turn regulate the expression of luciferase reporter. As described above, HCT116 human colon cancer cell line was used for TCR engagement using the CDH3×CD3 bispecific and genetically engineered by lentiviral transduction to express human FCγRI.
A 96 well culture plate was seeded with HCT116 parental or HCT116-CD64 cells at 40,000 cells per well in 100 μL RPMI with 10% HI FBS and grown overnight at 37° C. in CO2 incubator. To each well, Jurkat reporter cells (100,000 per well) and 10 μL of the CDH3×CD3 bispecific (8 ng/ml final concentration) were added. 10 μL of serial dilutions of variant CD80-Fc fusion proteins with concentrations ranging from 0-1000 ng/ml (final concentrations per well) was added with appropriate controls. Assay plates were incubated for 6 hours at 37° C. in CO2 incubator for before harvesting culture supernatants and transferring to new plates. Following equilibration, 80 μL of BioGlo luminescence reagent (BioGlo Luciferase assay kit, Promega, G7940) was added into each well. Plates were incubated for 5 minutes before reading luminescence on the EnSight™ plate reader (PerkinElmer).
Jurkat is an immortalized human T cell line, and the Jurkat IL-2-reporter assay assesses the CD28-mediated signaling resulting in activation of the IL-2 promoter. The activity of CD80-Fc fusion proteins was measured using the co-culture HCT116-CD64-Jurkat IL-2 reporter assay, as described in Example 2, but using 20 ng/ml CDH3×CD3 bispecific.

[5] = Pharmacokinetics in cynomolgus monkeys; assay type: in vivo; conditions: cynomolgus monkey
Description: PK of variant CD80-Fc fusion proteins was assessed in non-human primates. […] A ligand binding assay using the Gyrolab Immunoassay platform was used to quantitate CD80-Fc molecules in cynomolgus monkey serum following dose administration. CD80-Fc constructs were captured onto the Gyrolab Bioaffy CD using a biotinylated monoclonal anti-human CD80 antibody (Thermo Fisher Cat #13-0809-82). Bound CD80-Fc constructs were detected using a mouse anti-human Fc antibody (SouthernBiotech Cat #9040-01) that was labeled with Alexa Fluor 647. Sample concentrations were determined by interpolation from a calibration curve that were fit using a 5-parameter logistic regression model. The range of quantitation of the assay was 100-15000 ng/ml in 100% serum. […] AUC (Area Under the Curve); Cmax (Maximum Concentration observed); Tmax (Time of Maximum concentration observed)

| Substance | Number of tumor regressions ([1]; 0.1 mg/kg) | Day 10 tumor volume ([1]; 0.1 mg/kg IV) [mm^3] | % tumor growth inhibition ([1]; 0.1 mg/kg) [%] | Number of tumor regressions ([1]; 1 mg/kg) | Day 10 tumor volume ([1]; 1 mg/kg IV) [mm^3] | % tumor growth inhibition ([1]; 1 mg/kg) [%] | # IFNγ-producing spots (tumor-reactive T cells in spleen) ([1]; 1 mg/kg) | % aggregation ([2]; Table 11, 40° C.) [%] | % aggregation ([2]; Table 11, 45.3° C.) [%] | % aggregation ([2]; Table 11, 49.4° C.) [%] | EC50 [4] [pM] | % aggregation ([2]; Table 12, 40° C.) [%] | % aggregation ([2]; Table 12, 45.3° C.) [%] | % aggregation ([2]; Table 12, 49.4° C.) [%] | AUC ([5]; 3 mpk IV) [µg·h/mL] | Cmax ([5]; 3 mpk IV) [µg/mL] | Tmax ([5]; 3 mpk IV) [min] | AUC ([5]; 15 mpk IV) [µg·h/mL] | Cmax ([5]; 15 mpk IV) [µg/mL] | Tmax ([5]; 15 mpk IV) [min] | also measured |
| --- | --- | --- | --- | --- | --- | --- | --- | --- | --- | --- | --- | --- | --- | --- | --- | --- | --- | --- | --- | --- | --- |
| CD80-D90Q-Fc: variant CD80 ECD (D90Q) fused to human IgG1 Fc | 0/10 | 728.3 | 39.20 | 6/10 | 295.8 | 75.31 | 341.6875 | 81.6 | 89.5 | 89.5 | – | – | – | – | – | – | – | – | – | – | CD8^+ T cell infiltrates (% CD45) ([1]; CT26, 1 mg/kg, n=4): 27.4 % CD45 |
| CD80-K89D-D90K-T28V-T57V-Fc: non-cysteine stabilized variant CD80-Fc fusion protein (K89D, D90K, T28V, T57V) | – | – | – | – | – | – | – | – | – | – | 47 ± 4 | 0.6 | 6.0 | 62.8 | – | – | – | – | – | – | Viscosity ([3]; 92.7 mg/ml): 12.1 cP; Viscosity ([3]; 119 mg/ml): 27.8 cP; % aggregation ([2]; Table 12, 54.9° C.): 72.5% |
| CD80-K89Q-D90Q-E23C-A26C-Fc: disulfide stabilized variant CD80-Fc fusion protein (K89Q, D90Q, E23C, A26C) | 5/10 | 289.9 | 75.80 | 6/10 | 305.3 | 74.51 | 547.375 | – | – | – | 270 ± 44 | 0.6 | 2.9 | 0.5 | 3680 | 107 | 4.98 | 27800 | 627 | 4.98 | AUC fold-increase over WT ([5]; 3 mpk IV): 1.48; AUC fold-increase over WT ([5]; 15 mpk IV): 2.00; AUC ([5]; 50 mpk IV): 72200 µg·h/mL; AUC fold-increase over WT ([5]; 50 mpk IV): 1.95; Cmax ([5]; 50 mpk IV): 1790 µg/mL; Tmax ([5]; 50 mpk IV): 4.98 min; Viscosity ([3]; 107.0 mg/ml): 9.878 cP; Viscosity ([3]; 148.0 mg/ml): 30.16 cP; % aggregation ([2]; Table 11, 54.9° C.): 3.2%; % aggregation ([2]; Table 11, 59.1° C.): 22.8%; % aggregation ([2]; Table 11, 64° C.): 36.2%; % aggregation ([2]; Table 12, 54.9° C.): 6.7%; % aggregation ([2]; Table 12, 59.1° C.): 55.9%; % aggregation ([2]; Table 12, 64° C.): 68.8% |
| CD80-K89Q-D90Q-Fc: variant CD80 ECD (K89Q, D90Q) fused to human IgG1 Fc | 1/10 | 857.6 | 28.41 | 5/10 | 299.0 | 75.04 | 569.5 | 69.9 | 77.7 | 78.0 | – | – | – | – | 1230 | 89.4 | 4.98 | 12100 | 570 | 4.98 | AUC fold-increase over WT ([5]; 3 mpk IV): 0.50; AUC fold-increase over WT ([5]; 15 mpk IV): 0.87; AUC ([5]; 50 mpk IV): 27300 µg·h/mL; AUC fold-increase over WT ([5]; 50 mpk IV): 0.74; Cmax ([5]; 50 mpk IV): 1420 µg/mL; Tmax ([5]; 50 mpk IV): 4.98 min; Viscosity ([3]; 93.5 mg/ml): 32.8 cP; Viscosity ([3]; 120.6 mg/ml): 115.8 cP; enhanced co-stimulation compared to CD80-WT-Fc [4]: about 4 fold |
| CD80-WT-Fc: wild-type human CD80 extracellular domain fused to human IgG1 Fc (C220S) [reference compound] | – | – | – | – | – | – | – | 18.0 | 45.4 | 50.8 | 580 ± 74 | 0.6 | 64.9 | 83.4 | 2480 | 90.7 | 4.98 | 13900 | 460 | 4.98 | AUC ([5]; 50 mpk IV): 37000 µg·h/mL; Tmax ([5]; 50 mpk IV): 4.98 min; Viscosity ([3]; 101.65 mg/ml): 35.7 cP; Viscosity ([3]; 132.25 mg/ml): 158.8 cP |
